The assay deals with T1, Human NPTX2 (native protein in human CSF; antigen of the anti-human NPTX2 antibody) (human, UniProt P47972 17-431).
T1 construct: In CSF the protein is disulfide-linked with NPTX1 in heterocomplexes; also called Narp
T1 sequence: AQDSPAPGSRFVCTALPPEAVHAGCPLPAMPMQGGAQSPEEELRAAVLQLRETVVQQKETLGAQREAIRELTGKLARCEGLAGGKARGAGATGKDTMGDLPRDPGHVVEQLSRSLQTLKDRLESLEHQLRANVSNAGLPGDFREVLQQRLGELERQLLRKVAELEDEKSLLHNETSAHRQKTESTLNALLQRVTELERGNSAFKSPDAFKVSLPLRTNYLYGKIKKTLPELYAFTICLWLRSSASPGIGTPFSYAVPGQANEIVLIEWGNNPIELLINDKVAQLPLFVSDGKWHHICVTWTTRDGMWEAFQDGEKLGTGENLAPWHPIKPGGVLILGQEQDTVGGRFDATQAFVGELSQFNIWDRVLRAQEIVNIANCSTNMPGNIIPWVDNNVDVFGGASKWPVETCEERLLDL
The assay is described as follows: co-immunoprecipitation from human CSF.

B1: Human NPTX1 (native protein in human CSF; antigen of the anti-human NPTX1 antibody) (other)
chain: QDFGPTRFICTSVPVDADMCAASVAAGGAEELRSSVLQLRETVLQQKETILSQKETIRELTAKLGRCESQSTLDPGAGEARAGGGRKQPGSGKNTMGDLSRTPAAETLSQLGQTLQSLKTRLENLEQYSRLNSSSQTNSLKDLLQSKIDELERQVLSRVNTLEEGKGGPRNDTEERVKIETALTSLHQRISELEKGQKDNRPGDKFQLTFPLRTNYMYAKVKKSLPEMYAFTVCMWLKSSATPGVGTPFSYAVPGQANELVLIEWGNNPMEILINDKVAKLPFVINDGKWHHICVTWTTRDGVWEAYQDGTQGGSGENLAPYHPIKPQGVLVLGQEQDTLGGGFDATQAFVGELAHFNIWDRKLTPGEVYNLATCSTKALSGNVIAWAESHIEIYGGATKWTFEACRQIN
On to B1, for which the binding result is “binds”.

Values taken from patent US20170292963A1 (Johns Hopkins, published 2017).
